Experimental findings from publication PMC9519043 are described below.

Series [1] deals with SARS-CoV-2 virus particle (S protein), native, patient saliva (SARS-CoV-2 (clinical isolates)) (UniProt P0DTC2). The series can be described thus: microfluidic affinity capture, RT-qPCR. Particulars: 5' amino C12 linker and TEG spacer 9; 3' inverted dT; SPR (BIAcore T200, […], pH not stated; chip capture from buffer or saliva at 20 ul/min. Background: Real-time PCR tracks product formation cycle by cycle.

Series [2] relates to HRSV virus particle (Human respiratory syncytial virus strain A2 (ATCC VR-1540)). The series can be described thus: microfluidic affinity capture, RT-qPCR. Particulars: SPR (BIAcore T200, […], pH not stated.

Take “CAGCACCGACCTTGTGCTTTGGGAGTGCTGGTCCAAGGGCGTTAATGGACA [51-nt SARS-CoV-2 aptamer, chip form]”: in series [1], the binding signal came out at 94.7 % recovery.

“TAGGGAAGAGAAGGACATATGATAGTGCGGTGAGCCGTCGGACATACAAATACTTGACTAGTACATGACCACTTGA [HRSV aptamer (Percze et al.), chip form]” showed a binding signal in series [2] of 74.2 % recovery.
